# Results published in US20210269521A1 (L AND L BIOPHARMA, published 2021).
# What was measured:
# [1] = target: T1, human TIM-3 extracellular domain-human IgG1 Fc fusion protein (human, UniProt Q8TDQ0 22-199); experiment: ELISA
# T1 construct: Made in house or bought (ACROBiosystems TM3-H5258); also called TIM-3-hFc; not shown: human IgG1 Fc
# Experimental: Goat-anti-hFc (Jackson, 109-005-008) was diluted to a concentration of 1 μg/ml with PBS buffer (pH 7.4) and added to a 96-well microplate (Corning, CLS3590-100EA) at a volume of 50 μl/well, then incubated in an incubator at 37° C. for 2 hours (Or the antigen TIM-3 was directly used to coat the microplate with a concentration of 0.5 μg/ml, and then the antibody to be tested was directly added). After discarding the liquid, a blocking solution of 5% skimmed milk (skimmed milk powder purchased from Bright) diluted with PBS was added at 200 μl per well, and the microplate was incubated for 2.5 hours at 37° C. or overnight (16-18 hours) at 4° C. for blocking. The blocking solution was discarded, and the microplate was washed 5 times with PBST buffer (PBS with pH 7.4 containing 0.05% tween-20), then 50 μl/well of 0.5 μg/ml TIM-3-hFc (Example 1) was added and incubated for 2 hours in a 37° C. incubator. After incubation, the microplate was washed 6 times with PB ST. 50 μl/well of supernatant (containing testing antibody) or different concentrations of the antibody to be tested was added, and the microplate was incubated at 37° C. for 2 hours and washed 5 times with PBST. 50 μl/well of 1:2500 diluted HRP-labeled secondary antibody (Jackson Immuno Research, 115-035-003) was added to the microplate, incubating at 37° C. for 1 hour. After washing the microplate 5 times with PBST, 50 μl/well TMB chromogenic substrate (KPL, 52-00-03) was added to the microplate, followed by incubating at room temperature for 10-15 min.
# The above-mentioned TIM-3 and PD-1 bispecific antibodies of the present invention were optimized and designed using the methods of Example 2 and Example 5, and their affinity for TIM-3 and PD-1 were tested respectively.
# [2] = target: T1, human TIM-3 extracellular domain-human …; experiment: ELISA; PBS, 37°C 7 days
# [3] = target: T2, human PD-1 extracellular domain protein expressed in Example 1 (tag not stated) (human, UniProt Q15116 25-170); experiment: ELISA; PBS, 37°C 7 days
# T2 construct: extracellular domain; also called PD-1 protein; not shown: human IgG1 Fc or his tag
# [4] = target: T1, human TIM-3 extracellular domain-human …; experiment: ELISA; pH 5.5, 37°C 7 days
# [5] = target: T2, human PD-1 extracellular domain protein …; experiment: ELISA; pH 5.5, 37°C 7 days
# [6] = target: T1, human TIM-3 extracellular domain-human …; experiment: ELISA; pH 5.5, 40°C 10 days
# [7] = target: T2, human PD-1 extracellular domain protein …; experiment: ELISA; pH 5.5, 40°C 10 days
# [8] = target: T1, human TIM-3 extracellular domain-human …; experiment: ELISA; PBS, 37°C 7 days, against 0 day
# [9] = target: T2, human PD-1 extracellular domain protein …; experiment: ELISA; PBS, 37°C 7 days, against 0 day
# [10] = target: T1, human TIM-3 extracellular domain-human …; experiment: ELISA; PBS, 37°C 14 days, against 0 day
# [11] = target: T2, human PD-1 extracellular domain protein …; experiment: ELISA; PBS, 37°C 14 days, against 0 day
# [12] = target: T1, human TIM-3 extracellular domain-human …; experiment: ELISA; pH 5.5, 40°C 5 days, against 0 day
# [13] = target: T2, human PD-1 extracellular domain protein …; experiment: ELISA; pH 5.5, 40°C 5 days, against 0 day
# [14] = target: T1, human TIM-3 extracellular domain-human …; experiment: ELISA; PBS, 37°C 14 days (degraded sample)
# [15] = target: T2, human PD-1 extracellular domain protein …; experiment: ELISA; PBS, 37°C 14 days (degraded sample)
# [16] = target: T2, human PD-1 extracellular domain protein …; experiment: blocking ELISA, PD-1 coated, competitor biotin-labeled PD-L1
# [17] = target: T1, human TIM-3 extracellular domain-human …; experiment: ELISA, EC50 of bispecific over EC50 of the monoclonal control
# [18] = target: T1, human TIM-3 extracellular domain-human …; experiment: ELISA; 15 mg/mL in preparation buffer (20 mM His pH 6.0), 37°C 0 day (-80°C)
# [19] = target: T2, human PD-1 extracellular domain protein …; experiment: as above
# [20] = target: T3, TIM-3-hFc (Acro biosystems, 22-142) (human, UniProt Q8TDQ0 22-142); experiment: double-sandwich ELISA: TIM-3-hFc coated, LB141 titrated, detected with PD-1-his and anti-his-HRP
# T3 construct: Bought; not shown: human Fc (hFc)
binder,measurement,setting,value
"bispecific antibody LB141 (bispecific antibody, human IgG4 S228P, kappa, ab6VL-(G4S)3-ab6VH-(G4S)3-PemVH-hIgG4 with PemVL-κ) light: EIVLTQSPATLSLSPGERATLSCRASKGVSTSGYSYLHWYQQKPGQAPRLLIYLASYLESGVPARFSGSGSGTDFTLTISSLEPEDFAVYYCQHSRDLPLTFGGGTKVEIKRTVAAPSVFIFPPSDEQLKSGTASVVCLLNNFYPREAKVQWKVDNALQSGNSQESVTEQDSKDSTYSLSSTLTLSKADYEKHKVYACEVTHQGLSSPVTKSFNRGEC heavy: not shown",EC50,[1],81 pM
same,EC50,[2],325 pM
same,EC50,[3],339 pM
same,EC50,[4],157 pM
same,EC50,[5],128 pM
same,EC50,[6],373 pM
same,EC50,[7],215 pM
same,Fold change of EC50,[8],1.28 ratio
same,Fold change of EC50,[9],1.16 ratio
same,Fold change of EC50,[10],2.71 ratio
same,Fold change of EC50,[11],1.37 ratio
same,Fold change of EC50,[12],0.95 ratio
same,Fold change of EC50,[13],1.1 ratio
same,EC50,[14],685 pM
same,EC50,[15],400 pM
same,IC50,[16],1660 pM
same,Multiple of EC50 variation,[17],0.83 ratio
same,EC50,[18],303 pM
same,EC50,[19],378 pM
same,EC50,[20],931 pM
